Experimental data published in US20240010747A1, “ANTI-MRP4 (ENCODED BY ABCC4 GENE) ANTIBODIES AND USES THEREOF” (Kenjockety Biotechnology, Inc., priority 2020, published 2024).

T1: human ABCC4 (Homo sapiens, UniProt O15439)
T1 construct: expressed in transfected cells
T1 sequence (O15439 1-1325): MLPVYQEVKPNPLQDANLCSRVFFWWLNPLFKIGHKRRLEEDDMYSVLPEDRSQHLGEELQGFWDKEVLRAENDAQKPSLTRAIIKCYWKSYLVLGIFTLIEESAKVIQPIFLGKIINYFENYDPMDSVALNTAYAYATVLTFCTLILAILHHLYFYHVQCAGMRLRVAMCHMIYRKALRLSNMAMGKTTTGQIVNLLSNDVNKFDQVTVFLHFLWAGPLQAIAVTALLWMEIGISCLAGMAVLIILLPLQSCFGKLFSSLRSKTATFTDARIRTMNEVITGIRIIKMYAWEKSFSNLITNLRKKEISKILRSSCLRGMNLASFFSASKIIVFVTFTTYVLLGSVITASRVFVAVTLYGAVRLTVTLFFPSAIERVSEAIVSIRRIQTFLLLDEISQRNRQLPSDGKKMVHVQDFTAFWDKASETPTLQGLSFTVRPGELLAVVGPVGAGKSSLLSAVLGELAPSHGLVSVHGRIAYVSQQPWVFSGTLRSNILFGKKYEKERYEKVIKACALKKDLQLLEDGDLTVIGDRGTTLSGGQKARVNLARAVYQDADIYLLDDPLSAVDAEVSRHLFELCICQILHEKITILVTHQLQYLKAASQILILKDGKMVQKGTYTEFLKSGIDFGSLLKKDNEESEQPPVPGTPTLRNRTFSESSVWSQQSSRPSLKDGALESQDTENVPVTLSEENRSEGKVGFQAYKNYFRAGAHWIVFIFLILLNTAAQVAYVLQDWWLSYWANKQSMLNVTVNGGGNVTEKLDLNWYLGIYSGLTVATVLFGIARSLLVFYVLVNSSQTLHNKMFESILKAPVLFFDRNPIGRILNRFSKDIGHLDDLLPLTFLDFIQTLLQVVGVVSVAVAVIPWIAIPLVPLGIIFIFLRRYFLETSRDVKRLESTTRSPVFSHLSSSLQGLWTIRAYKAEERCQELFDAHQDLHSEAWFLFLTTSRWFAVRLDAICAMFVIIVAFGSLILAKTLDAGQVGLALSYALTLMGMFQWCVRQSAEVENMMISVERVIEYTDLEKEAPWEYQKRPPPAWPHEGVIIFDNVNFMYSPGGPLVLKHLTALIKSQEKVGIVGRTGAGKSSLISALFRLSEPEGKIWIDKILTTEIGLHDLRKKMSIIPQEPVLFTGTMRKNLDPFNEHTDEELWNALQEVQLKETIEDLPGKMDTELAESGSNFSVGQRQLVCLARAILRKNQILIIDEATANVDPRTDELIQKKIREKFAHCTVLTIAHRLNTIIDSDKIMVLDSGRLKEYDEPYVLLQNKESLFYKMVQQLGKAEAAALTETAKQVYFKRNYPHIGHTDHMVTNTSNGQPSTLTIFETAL

T2: human ABCC4 (human, UniProt O15439 1-1325)
T2 construct: Expressed on murine C6 cells stably transfected with human ABCC4 cDNA with C-terminal FLAG tag; also called MRP4; Multidrug resistance protein 4; not shown: C-terminal fused FLAG tag
T2 sequence: T1 sequence (O15439 1-1325)

B1: C4.1059 (antibody, V domains shown)
VH: QVQLLQSGAALVKPGASVKMSCKPSGYTFTDYWVSWVKQSHGKSLEWIGEIYPNNGATNFNEKFKGKATLTVDKSTSTAYMELSRLTSEDSAIYYCPSRKYGYNWNFDYWGQGTMVTVSS
VL: DIVLTQSPALAVSLGQRATISCWASQSVSISRYNLMHWYQQKPGQQPKLLIYRASNLASGIPARFSGSGSGTDFTLTINPVQADDIATYYCQQSGESPWTFGGGTKLELK
B2: C4.1148 (antibody, V domains shown)
VH: EVQLVESDGGLVQPGRSLKLSCAASGFTFSDYYMAWVRQAPPKGLEWVATISYDAFTTYYRDSVKGRFTISRDNAKTILFLQMDSLRSEDTATYYCIRLSTRYKGVMDAWGHGASVTVSS
VL: DIQMTQSPSNLAASPGESVSINCKASETIYKYLAWYQQKPGRTNKLLIYSGSTLQSGTPSRFSGSGSGTDFTLTIRNLEPEDFGRYYCQHHVEYPPTFGAGTKLELK
B3: C4.1139 (antibody, V domains shown)
VH: EVQLVESDGGLVQPGRSLKLSCAASGFTFSDYYMAWVRQAPTKGLYWVASISYDGSTTYYRDSVKGRFTISRDNAKSTLYLQMGSLRSEDTATYYCARLSIRYKGVMDAWGRGASVTVSS
VL: DVVMTQSPSNLAASPGESVSINCKASKSIGKFLAWYQQKPGRPNKLLIYSGSTLQSGTPSRFSGSGSGTDFTLTIRNLEPGDFGLYYCQHHIEYPPTFGPGTKLELK

Biological target: T1, human ABCC4
Assay: Flow cytometry (FACS) binding to C6 cells stably transfected to express human ABCC4 (different experiment, Table 4)
Conditions: C6 cells stably transfected to express human ABCC4, FACS; different experiment, Table 4
In short: (§1)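 Murine C6 cells stably expressing FLAG-tagged human or cynomolgus ABCC4 incubated 30 min on ice with antibodies, either 5 ug/mL or serially diluted from 100 ug/mL, in PBS+2% FBS+0.02% azide. Detection with PE anti-human IgG F(ab′)2 by flow cytometry; EC50 at half-maximal MFI; negative below background, positive >3× background.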

| Molecule | Human ABCC4 binding |
| --- | --- |
| B1 | + (Positive (+)=MFI>3× background level) |
| B2 | + (Positive (+)=MFI>3× background level) |
| B3 | + (Positive (+)=MFI>3× background level) |

Test system: cynomolgus ABCC4
Assay: Flow cytometry (FACS) binding to C6 cells stably transfected to express cynomolgus ABCC4 (different experiment, different C6.cC4 cell line, Table 4)
Design: key to Cynomolgus ABCC4 binding: Negative (−)=Rmax (MFI) below background level; Positive (+)=MFI>3× background level
Conditions: different C6.cC4 cell line, C6 cells stably transfected to express cynomolgus ABCC4, FACS; Table 4
In short: as §1

| Molecule | Cynomolgus ABCC4 binding |
| --- | --- |
| B1 | − |
| B2 | − |
| B3 | − |

Biological target: T2, human ABCC4
Assay: FACS, C6 cells stably expressing human ABCC4; + = MFI>3x background
Conditions: not given
Protocol: Antibody binding to cells was evaluated by flow cytometry. Murine C6 cells stably transfected to express human or cynomolgus ABCC4 were washed once in flow cytometry buffer (PBS+2% FBS+0.02% sodium azide), resuspended at 2×10\hat{ }6 cells/mL in flow cytometry buffer, and dispensed into 96-well microtiter plates at 0.1 mL/well. Recombinant antibodies were added to cells at 5 ug/mL for initial binding confirmation, or serially diluted from 100 ug/mL in flow cytometry buffer. After incubating cells on ice for 30 min, cells were washed twice with flow cytometry buffer. Bound antibody was detected with PE-labeled F(ab′)₂ fragment goat anti-human IgG (Jackson ImmunoResearch) and evaluated on an Attune N×T flow cytometer. EC50 is calculated to be the concentration of antibody that gives half maximal response.

| Molecule | binding result |
| --- | --- |
| B1 | binds |
| B2 | binds |
| B3 | binds |
